# According to patent publication US20260167699A1 (Chugai, published 2026):
# B1: GpH7-A5/GpH7-B3 variant P331_15Y/GpL16-k0 (antibody, human IgG1, kappa)
# heavy 1: not shown
# heavy 2: not shown
# light: DIVMTQSPLSLPVTPGEPASISCQASESLVHSNRNTYLHWYLQKPGQSPQLLIYKVSNRFSGVPDRFSGSGSGTDFTLKISRVEAEDVGVYYCSQNTHVPPTFGQGTKVEIERTVAAPSVFIFPPSDEQLKSGTASVVCLLNNFYPREAKVQWKVDNALQSGNSQESVTEQDSKDSTYSLSSTLTLSKADYEKHKVYACEVTHQGLSSPVTKSFNRGEC
# notes: He Ab; copies: 1 + 1 + 2
# B2: GpH7-A5/GpH7-B3 variant L328_03V/GpL16-k0 (antibody, human IgG1, kappa)
# heavy 1: not shown
# heavy 2: not shown
# light: B1 light
# notes: He Ab; copies: 1 + 1 + 2
# B3: GpH7-A5/GpH7-B3 variant P331_04F/GpL16-k0 (antibody, human IgG1, kappa)
# heavy 1: not shown
# heavy 2: not shown
# light: B1 light
# notes: He Ab; copies: 1 + 1 + 2
# B4: GpH7-A5/GpH7-B3 variant P271_16H/GpL16-k0 (antibody, human IgG1, kappa)
# heavy 1: not shown
# heavy 2: not shown
# light: B1 light
# notes: He Ab; copies: 1 + 1 + 2
# B5: GpH7-A5/GpH7-B3 variant P271_13S/GpL16-k0 (antibody, human IgG1, kappa)
# heavy 1: not shown
# heavy 2: not shown
# light: B1 light
# notes: He Ab; copies: 1 + 1 + 2
# B6: GpH7-A5/GpH7-B3 variant P331_16H/GpL16-k0 (antibody, human IgG1, kappa)
# heavy 1: not shown
# heavy 2: not shown
# light: B1 light
# notes: He Ab; copies: 1 + 1 + 2
# B7: GpH7-A5/GpH7-B3 variant P271_10E/GpL16-k0 (antibody, human IgG1, kappa)
# heavy 1: not shown
# heavy 2: not shown
# light: B1 light
# notes: He Ab; copies: 1 + 1 + 2
# B8: GpH7-A5/GpH7-B3 variant P331_14T/GpL16-k0 (antibody, human IgG1, kappa)
# heavy 1: not shown
# heavy 2: not shown
# light: B1 light
# notes: He Ab; copies: 1 + 1 + 2
# B9: GpH7-A5/GpH7-B3 variant P271_03V/GpL16-k0 (antibody, human IgG1, kappa)
# heavy 1: not shown
# heavy 2: not shown
# light: B1 light
# notes: He Ab; copies: 1 + 1 + 2
# B10: GpH7-A5/GpH7-B3 variant L328_14T/GpL16-k0 (antibody, human IgG1, kappa)
# heavy 1: not shown
# heavy 2: not shown
# light: B1 light
# notes: He Ab; copies: 1 + 1 + 2
# B11: GpH7-A5/GpH7-B3 variant P331_09D/GpL16-k0 (antibody, human IgG1, kappa)
# heavy 1: not shown
# heavy 2: not shown
# light: B1 light
# notes: He Ab; copies: 1 + 1 + 2
# B12: GpH7-A5/GpH7-B3 variant P331_10E/GpL16-k0 (antibody, human IgG1, kappa)
# heavy 1: not shown
# heavy 2: not shown
# light: B1 light
# notes: He Ab; copies: 1 + 1 + 2
# B13: GpH7-A5/GpH7-B3 variant L328_16H/GpL16-k0 (antibody, human IgG1, kappa)
# heavy 1: not shown
# heavy 2: not shown
# light: B1 light
# notes: He Ab; copies: 1 + 1 + 2
# B14: GpH7-A5/GpH7-B3 variant P331_06M/GpL16-k0 (antibody, human IgG1, kappa)
# heavy 1: not shown
# heavy 2: not shown
# light: B1 light
# notes: He Ab; copies: 1 + 1 + 2
# B15: GpH7-A5/GpH7-B3 variant P271_06M/GpL16-k0 (antibody, human IgG1, kappa)
# heavy 1: not shown
# heavy 2: not shown
# light: B1 light
# notes: He Ab; copies: 1 + 1 + 2
# B16: GpH7-A5/GpH7-B3 variant P271_07I/GpL16-k0 (antibody, human IgG1, kappa)
# heavy 1: not shown
# heavy 2: not shown
# light: B1 light
# notes: He Ab; copies: 1 + 1 + 2
# B17: GpH7-A5/GpH7-B3 variant P331_18N/GpL16-k0 (antibody, human IgG1, kappa)
# heavy 1: not shown
# heavy 2: not shown
# light: B1 light
# notes: He Ab; copies: 1 + 1 + 2
# B18: GpH7-A5/GpH7-B3 variant P329_10E/GpL16-k0 (antibody, human IgG1, kappa)
# heavy 1: not shown
# heavy 2: not shown
# light: B1 light
# notes: He Ab; copies: 1 + 1 + 2
# B19: GpH7-A5/GpH7-B3 variant L328_18N/GpL16-k0 (antibody, human IgG1, kappa)
# heavy 1: not shown
# heavy 2: not shown
# light: B1 light
# notes: He Ab; copies: 1 + 1 + 2
# B20: GpH7-A5/GpH7-B3 variant L328_13S/GpL16-k0 (antibody, human IgG1, kappa)
# heavy 1: not shown
# heavy 2: not shown
# light: B1 light
# notes: He Ab; copies: 1 + 1 + 2
# B21: GpH7-A5/GpH7-B3 variant Q295_04F/GpL16-k0 (antibody, human IgG1, kappa)
# heavy 1: not shown
# heavy 2: not shown
# light: B1 light
# notes: He Ab; copies: 1 + 1 + 2
# B22: GpH7-A5/GpH7-B3 variant L328_07I/GpL16-k0 (antibody, human IgG1, kappa)
# heavy 1: not shown
# heavy 2: not shown
# light: B1 light
# notes: He Ab; copies: 1 + 1 + 2
# B23: GpH7-A5/GpH7-B3 variant P271_02A/GpL16-k0 (antibody, human IgG1, kappa)
# heavy 1: not shown
# heavy 2: not shown
# light: B1 light
# notes: He Ab; copies: 1 + 1 + 2
# B24: GpH7-A5/GpH7-B3 variant P238_10E/GpL16-k0 (antibody, human IgG1, kappa)
# heavy 1: not shown
# heavy 2: not shown
# light: B1 light
# notes: He Ab; copies: 1 + 1 + 2
# B25: GpH7-A5/GpH7-B3 variant L328_06M/GpL16-k0 (antibody, human IgG1, kappa)
# heavy 1: not shown
# heavy 2: not shown
# light: B1 light
# notes: He Ab; copies: 1 + 1 + 2
# B26: GpH7-A5/GpH7-B3 variant P331_19Q/GpL16-k0 (antibody, human IgG1, kappa)
# heavy 1: not shown
# heavy 2: not shown
# light: B1 light
# notes: He Ab; copies: 1 + 1 + 2
# B27: GpH7-A5/GpH7-B3 variant Q295_02A/GpL16-k0 (antibody, human IgG1, kappa)
# heavy 1: not shown
# heavy 2: not shown
# light: B1 light
# notes: He Ab; copies: 1 + 1 + 2
# B28: GpH7-A5/GpH7-B3 variant P271_20W/GpL16-k0 (antibody, human IgG1, kappa)
# heavy 1: not shown
# heavy 2: not shown
# light: B1 light
# notes: He Ab; copies: 1 + 1 + 2
# B29: GpH7-A5/GpH7-B3 variant P331_02A/GpL16-k0 (antibody, human IgG1, kappa)
# heavy 1: not shown
# heavy 2: not shown
# light: B1 light
# notes: He Ab; copies: 1 + 1 + 2
# B30: GpH7-A5/GpH7-B3 variant P271_18N/GpL16-k0 (antibody, human IgG1, kappa)
# heavy 1: not shown
# heavy 2: not shown
# light: B1 light
# notes: He Ab; copies: 1 + 1 + 2
# B31: GpH7-A5/GpH7-B3 variant P271_01G/GpL16-k0 (antibody, human IgG1, kappa)
# heavy 1: not shown
# heavy 2: not shown
# light: B1 light
# notes: He Ab; copies: 1 + 1 + 2
# Target: T1, FcγRIIIa extracellular domain, C-terminal His tag (human, UniProt P08637 17-208)
# T1 construct: extracellular domain; also called 3a
# T1 sequence (P08637 other isoform, or with tags, fused parts or gaps): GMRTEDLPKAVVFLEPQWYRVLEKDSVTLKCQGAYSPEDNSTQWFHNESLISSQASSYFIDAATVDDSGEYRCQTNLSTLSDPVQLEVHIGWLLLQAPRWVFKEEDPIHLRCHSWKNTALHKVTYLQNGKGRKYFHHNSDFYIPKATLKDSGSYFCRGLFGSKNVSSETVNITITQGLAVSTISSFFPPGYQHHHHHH
# Test: SPR, binding activity relative to GpH7-A5/GpH7-B3/GpL16-k0 (=100)
row,Binder,He/Con 3a
1,B1,74.9%
2,B2,80.9%
3,B3,70.7%
4,B4,70.3%
5,B5,79.8%
6,B6,73.4%
7,B7,98.2%
8,B8,67.8%
9,B9,73.5%
10,B10,77.4%
11,B11,71.6%
12,B12,68.7%
13,B13,55.9%
14,B14,68.4%
15,B15,74%
16,B16,80.2%

row,Binder,He/Con 3a
1,B17,67.1%
2,B18,52.7%
3,B19,51.1%
4,B20,73.7%
5,B21,75.1%
6,B22,86.4%
7,B23,83.7%
8,B24,98.9%
9,B25,80.8%
10,B26,73.9%
11,B27,111%
12,B28,77.8%
13,B29,82.5%
14,B30,94%
15,B31,119%
